Publication PMC12717047 (Nature Communications, 2025)

How the values were obtained:
Test in all cases: flow cytometry on cells
[1] = biological target: T1, KRAS^WT p7 peptide presented on HLA-A*03 (p7^WT/A*03) (Homo sapiens, HLA-A*03:01, strain, biotin on the AviTag (BirA co-expressed))
T1 chain 1: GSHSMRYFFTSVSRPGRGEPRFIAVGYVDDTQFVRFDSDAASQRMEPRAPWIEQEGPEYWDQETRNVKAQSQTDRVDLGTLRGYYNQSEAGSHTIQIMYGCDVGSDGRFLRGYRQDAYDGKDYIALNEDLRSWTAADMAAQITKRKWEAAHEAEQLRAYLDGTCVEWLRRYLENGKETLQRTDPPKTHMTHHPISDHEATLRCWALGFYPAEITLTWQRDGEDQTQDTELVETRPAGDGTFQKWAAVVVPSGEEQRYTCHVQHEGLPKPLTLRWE
T1 chain 2: not shown
T1 chain 3: VVVGAGGVGK

[2] = biological target: KRAS^WT p7 peptide presented on HLA-A*11 (p7^WT/A*11) (Homo sapiens, HLA-A*11:01, strain, biotin on the AviTag (BirA co-expressed))
[3] = biological target: T2, KRAS^WT p5 peptide presented on HLA-A*02 (p5^WT/A*02) (Homo sapiens, HLA-A*02:01, strain, biotin on the AviTag (BirA co-expressed))
T2 chain 1: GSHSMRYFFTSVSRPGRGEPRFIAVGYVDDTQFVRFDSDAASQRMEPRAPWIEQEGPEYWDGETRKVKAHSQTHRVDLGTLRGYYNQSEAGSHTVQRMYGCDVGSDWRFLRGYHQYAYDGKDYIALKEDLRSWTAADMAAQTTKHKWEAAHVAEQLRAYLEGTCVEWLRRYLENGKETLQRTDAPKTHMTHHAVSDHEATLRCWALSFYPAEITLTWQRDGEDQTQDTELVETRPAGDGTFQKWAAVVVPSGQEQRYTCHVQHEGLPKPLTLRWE
T2 chain 2: not shown
T2 chain 3: KLVVVGAGGV

- binding result [1]: no binding
- binding result [2]: no binding
- binding result [3]: no binding
B1: yeast-displayed scFv R302 (scFv, V domains shown)
VH: EVQLLESGGGVVQPGRSLRLSCAASGFTFSSYGMHWVRQAPGKGLEWVAVISYDGSNKYYADSVKGRFTISRDNSKNTLYLQMNSLRAEDTAVYYCLYGGNSYGMDVWGQGTMVTVFN
VL: DIVMTQSPATLSLSPGERATLSCRASQSLSSSFLAWYQQKPGQAPRLLIYGASSRATGIPDRFSGSGSGTDFTLTISRLEPEDFAVYYCQQSESALTFGGGTKVEIK
